# According to IntAct's records for PubMed 9804817:
# B1: Tyrosine-protein phosphatase non-receptor type 18 (Mus musculus), Q61152 (parent)
# chain: MSRHTDLVRSFLEQLEARDYREGAILAREFSDIKARSVAWKSEGVCSTKAGSRLGNTNKNRYKDVVAYDETRVILSLLQEEGHGDYINANFIRGIDGSQAYIATQGPLPHTLLDFWRLVWEFGVKVILMACQETENGRRKCERYWAREQEPLKAGPFCITLTKETTLNADITLRTLQVTFQKEFRSVHQLQYMSWPDHGVPSSSDHILTMVEEARCLQGLGPGPLCVHCSAGCGRTGVLCAVDYVRQLLLTQTIPPNFSLFQVVLEMRKQRPAAVQTEEQYRFLYHTVAQLFSRTLQDTSPHYQNLKENCAPICKEAFSLRTSSALPATSRPPGGVLRSISVPAPPTLPMADTYAVVQKRGASAGTGPGPRAPTSTDTPIYSQVAPRAQRPVAHTEDAQGTTALRRVPADQNSSGPDAYEEVTDGAQTGGLGFNLRIGRPKGPRDPPAEWTRV
# partner: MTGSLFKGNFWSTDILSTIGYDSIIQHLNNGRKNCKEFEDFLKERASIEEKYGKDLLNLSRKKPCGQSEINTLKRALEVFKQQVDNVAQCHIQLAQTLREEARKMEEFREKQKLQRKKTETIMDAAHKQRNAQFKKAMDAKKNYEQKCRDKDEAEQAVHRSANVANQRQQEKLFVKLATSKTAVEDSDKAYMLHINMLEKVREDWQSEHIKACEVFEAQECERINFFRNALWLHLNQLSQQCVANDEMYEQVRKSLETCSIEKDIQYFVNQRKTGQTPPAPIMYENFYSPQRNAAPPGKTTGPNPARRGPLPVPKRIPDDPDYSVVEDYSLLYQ
# B2: Tyrosine-protein phosphatase non-receptor type 18 (Mus musculus), Q61152 (parent)
# chain: B1 chain
# B3: Proline-serine-threonine phosphatase-interacting protein 2 (Mus musculus), Q99M15 (parent)
# chain: B1 partner
# partner: B1 chain
# B4: Proline-serine-threonine phosphatase-interacting protein 1 (Mus musculus), P97814 (parent)
# chain: MMAQLQFRDAFWCRDFTAHTGYEVLLQRLLDGRKMCKDVEELLRQRAQAEERYGKELVQIARKAGGQTEMNSLRTSFDSLKQQTENVGSAHIQLALALREELRSLEEFRERQKEQRKKYEAIMDRVQKSKLSLYKKTMESKKAYDQKCRDADDAEQAFERVSANGHQKQVEKSQNKAKQCKESATEAERVYRQNIEQLERARTEWEQEHRTTCEAFQLQEFDRLTILRNALWVHCNQLSMQCVKDDELYEEVRLTLEGCDVEGDINGFIQSKSTGREPPAPVPYQNYYDREVTPLIGSPSIQPSCGVIKRFSGLLHGSPKTTPSAPAASTETLTPTPERNELVYASIEVQATQGNLNSSAQDYRALYDYTAQNSDELDISAGDILAVILEGEDGWWTVERNGQRGFVPGSYLEKL
# partner: B1 chain
# Variants of: B1
# Conditions: with ppip2_mouse Pstpip2, Q99M15
row,effect of a mutation on the interaction,Variant
1,decreasing interaction,MSRHTDLVRSFLEQLEARDYREGAILAREFSDIKARSVAWKSEGVCSTKAGSRLGNTNKNRYKDVVAYDETRVILSLLQEEGHGDYINANFIRGIDGSQAYIATQGPLPHTLLDFWRLVWEFGVKVILMACQETENGRRKCERYWAREQEPLKAGPFCITLTKETTLNADITLRTLQVTFQKEFRSVHQLQYMSWPDHGVPSSSDHILTMVEEARCLQGLGPGPLCVHCSAGCGRTGVLCAVDYVRQLLLTQTIPPNFSLFQVVLEMRKQRPAAVQTEEQYRFLYHTVAQLFSRTLQDTSPHYQNLKENCAPICKEAFSLRTSSALPATSRPPGGVLRSISVPAPPTLPMADTYAVVQKRGASAGTGPGPRAPTSTDTPIYSQVAPRAQRPVAHTEDAQGTTALRRVPADQNSSGPDAYEEVTDGAQTGGLGFNLRIGRPKGPRDPPAEATRV [W450A]

# Variants of: B1
# Conditions: with ppip2_mouse Pstpip2, Q99M15
# Remark: another data set of the same source
row,effect of a mutation on the interaction,Variant
1,decreasing interaction,MSRHTDLVRSFLEQLEARDYREGAILAREFSDIKARSVAWKSEGVCSTKAGSRLGNTNKNRYKDVVAYDETRVILSLLQEEGHGDYINANFIRGIDGSQAYIATQGPLPHTLLDFWRLVWEFGVKVILMACQETENGRRKCERYWAREQEPLKAGPFCITLTKETTLNADITLRTLQVTFQKEFRSVHQLQYMSWPDHGVPSSSDHILTMVEEARCLQGLGPGPLCVHCSAGCGRTGVLCAVDYVRQLLLTQTIPPNFSLFQVVLEMRKQRPAAVQTEEQYRFLYHTVAQLFSRTLQDTSPHYQNLKENCAPICKEAFSLRTSSALPATSRPPGGVLRSISVPAPPTLPMADTYAVVQKRGASAGTGPGPRAPTSTDTPIYSQVAPRAQRPVAHTEDAQGTTALRRVPADQNSSGPDAYEEVTDGAQTGGLGFNLRIGRPKGPADPPAEWTRV [R444A]

# Variants of: B2
# Conditions: with ppip1_mouse Pstpip1, P97814
row,effect of a mutation on the interaction,Variant
1,decreasing interaction,MSRHTDLVRSFLEQLEARDYREGAILAREFSDIKARSVAWKSEGVCSTKAGSRLGNTNKNRYKDVVAYDETRVILSLLQEEGHGDYINANFIRGIDGSQAYIATQGPLPHTLLDFWRLVWEFGVKVILMACQETENGRRKCERYWAREQEPLKAGPFCITLTKETTLNADITLRTLQVTFQKEFRSVHQLQYMSWPDHGVPSSSDHILTMVEEARCLQGLGPGPLCVHCSAGCGRTGVLCAVDYVRQLLLTQTIPPNFSLFQVVLEMRKQRPAAVQTEEQYRFLYHTVAQLFSRTLQDTSPHYQNLKENCAPICKEAFSLRTSSALPATSRPPGGVLRSISVPAPPTLPMADTYAVVQKRGASAGTGPGPRAPTSTDTPIYSQVAPRAQRPVAHTEDAQGTTALRRVPADQNSSGPDAYEEVTDGAQTGGLGFNLRIGRPKGPRDPPAEATRV [W450A]

# Variants of: B2
# Conditions: with ppip1_mouse Pstpip1, P97814
# Remark: another data set of the same source
row,effect of a mutation on the interaction,Variant
1,decreasing interaction,MSRHTDLVRSFLEQLEARDYREGAILAREFSDIKARSVAWKSEGVCSTKAGSRLGNTNKNRYKDVVAYDETRVILSLLQEEGHGDYINANFIRGIDGSQAYIATQGPLPHTLLDFWRLVWEFGVKVILMACQETENGRRKCERYWAREQEPLKAGPFCITLTKETTLNADITLRTLQVTFQKEFRSVHQLQYMSWPDHGVPSSSDHILTMVEEARCLQGLGPGPLCVHCSAGCGRTGVLCAVDYVRQLLLTQTIPPNFSLFQVVLEMRKQRPAAVQTEEQYRFLYHTVAQLFSRTLQDTSPHYQNLKENCAPICKEAFSLRTSSALPATSRPPGGVLRSISVPAPPTLPMADTYAVVQKRGASAGTGPGPRAPTSTDTPIYSQVAPRAQRPVAHTEDAQGTTALRRVPADQNSSGPDAYEEVTDGAQTGGLGFNLRIGRPKGPADPPAEWTRV [R444A]

# Variants of: B3
# Conditions: with ptn18_mouse Ptpn18, Q61152
row,effect of a mutation on the interaction,Variant
1,disrupting interaction,MTGSLFKGNFWSTDILSTIGYDSIIQHLNNGRKNCKEFEDFLKERASIEEKYGKDLLNLSRKKPCGQSEINTLKRALEVFKQQVDNVAQCHIQLAQTLREEARKMEEFREKQKLQRKKTETIMDAAHKQRNAQFKKAMDAKKNYEQKCRDKDEAEQAVHRSANVANQRQQEKLFVKLATSKTAVEDSDKAYMLHINMLEKVREDWQSEHIKACEVFEAQECERINFFRNALALHLNQLSQQCVANDEMYEQVRKSLETCSIEKDIQYFVNQRKTGQTPPAPIMYENFYSPQRNAAPPGKTTGPNPARRGPLPVPKRIPDDPDYSVVEDYSLLYQ [W232A]

# Variants of: B4
# Conditions: with ptn18_mouse Ptpn18, Q61152
row,effect of a mutation on the interaction,Variant
1,disrupting interaction,W232A
